{
  "source": "patent US20070225241A1",
  "molecular_target": "calf thymus RNA Polymerase II (12-subunit enzyme, Form II; core of Form I) (bovine (calf thymus))",
  "assay": "quantification of seven Coomassie stained SDS-PAGE gel bands of purified or reconstituted FI RNAPII",
  "data": [
    {"substance": "native calf thymus Gdown1 (41 kD polypeptide of Form I RNAPII) (from UniProt Q17QE3 1-370)", "values": [
      {"measurement": "average molar ratio of Gdown1 to Rpb5 in FI RNAPII", "value": 1, "unit": "molar ratio"}
    ]}
  ]
}
